{"source": "FireProtDB (doi:10.1021/bi702211j)", "conditions": "Saccharomyces cerevisiae (strain ATCC 204508 / S288c), pH 7.5, 20 °C, Urea, HEPES 10 mM, NaCl 200 mM, reversible: Yes, whole UniProt chain shown", "note": "“And” between values parts separate entries of the source, which are not always exact repeats. Equal entries are not always repeated."}
{"protein": "Eukaryotic translation initiation factor 2 subunit alpha wild type, P20459 (protein) MSTSHCRFYENKYPEIDDIVMVNVQQIAEMGAYVKLLEYDNIEGMILLSELSRRRIRSIQKLIRVGKNDVAVVLRVDKEKGYIDLSKRRVSSEDIIKCEEKYQKSKTVHSILRYCAEKFQIPLEELYKTIAWPLSRKFGHAYEAFKLSIIDETVWEGIEPPSKDVLDELKNYISKRLTPQAVKIRADVEVSCFSYEGIDAIKDALKSAEDMSTEQMQVKVKLVAAPLYVLTTQALDKQKGIEQLESAIEKITEVITKYGGVCNITMPPKAVTATEDAELQALLESKELDNRSDSEDDEDESDDE", "values": [{"measurement": "denaturant m value", "setting": "CD", "value": "0.88 kcal/mol/M and 0.98 kcal/mol/M"}, {"measurement": "unfolding free energy", "setting": "CD", "value": "2.45 kcal/mol and 2.95 kcal/mol and 4.61 kcal/mol"}, {"measurement": "denaturant m value", "setting": "Fluorescence", "value": "1.84 kcal/mol/M and 2.19 kcal/mol/M"}, {"measurement": "unfolding free energy", "setting": "Fluorescence", "value": "5.17 kcal/mol and 6.66 kcal/mol and 5.45 kcal/mol"}]}
